Source: PMC3991886, “Characterization of single-stranded DNA-binding proteins from the psychrophilic bacteria Desulfotalea psychrophila, Flavobacterium psychrophilum, Psychrobacter arcticus, Psychrobacter cryohalolentis, Psychromonas ingrahamii, Psychroflexus torquis, and Photobacterium profundum” (BMC Microbiology, 2014)

How the values were obtained:
Test in all cases: fluorescence titration; 2-300 mM NaCl; site size 32 ± 2 nt; EMSA: 20 mM Tris-HCl pH 8.0, 100 mM NaCl, 1 mM EDTA, 25 C, 2% agarose in TAE; fluorescence titration: 20 mM Tris-HCl pH 8.0, 1 mM EDTA, 2/100/300 mM NaCl, 25 C
Conditions in all cases: protein: recombinant; tags: none (stop codon in reverse primer); chain copies: 4; label: none stated
[1] = biological target: T1, PprSSB (Photobacterium profundum (LMG 19446), UniProt Q6LM83 5-187)
T1 sequence: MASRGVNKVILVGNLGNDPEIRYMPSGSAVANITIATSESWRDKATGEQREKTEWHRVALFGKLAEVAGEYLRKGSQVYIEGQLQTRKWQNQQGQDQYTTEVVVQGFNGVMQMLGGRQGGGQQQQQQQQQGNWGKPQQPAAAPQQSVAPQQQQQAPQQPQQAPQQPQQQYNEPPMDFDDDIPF

[2] = biological target: T2, PcrSSB (Psychrobacter cryohalolentis K5 (DSM …, UniProt Q1Q9B8 1-1+=G+2-219, internal_change))
T2 sequence: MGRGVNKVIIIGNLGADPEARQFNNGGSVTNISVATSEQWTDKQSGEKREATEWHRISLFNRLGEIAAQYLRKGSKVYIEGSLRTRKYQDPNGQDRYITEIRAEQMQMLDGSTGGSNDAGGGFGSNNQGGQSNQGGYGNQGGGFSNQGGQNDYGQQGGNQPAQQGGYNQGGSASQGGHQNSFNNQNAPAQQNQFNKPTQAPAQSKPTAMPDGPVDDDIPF

[3] = biological target: T3, PtoSSB (Psychroflexus torquis ATCC 700755 (LMG …, UniProt K4IS14 1-151))
T3 sequence: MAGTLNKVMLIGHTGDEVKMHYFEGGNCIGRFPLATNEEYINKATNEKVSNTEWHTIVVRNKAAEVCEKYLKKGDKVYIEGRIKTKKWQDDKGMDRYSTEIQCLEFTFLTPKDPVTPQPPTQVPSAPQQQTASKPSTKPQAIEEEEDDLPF

B1: (dT)76 (ssDNA)
DNA: TTTTTTTTTTTTTTTTTTTTTTTTTTTTTTTTTTTTTTTTTTTTTTTTTTTTTTTTTTTTTTTTTTTTTTTTTTTT
binding signal [1]: 90 ± 3 % Trp fluorescence quench at saturation
binding signal [2]: 93 ± 3 % Trp fluorescence quench at saturation
binding signal [3]: 93 ± 3 % Trp fluorescence quench at saturation
